Reference: PMC2949602, “Genome-wide search identifies Ccnd2 as a direct transcriptional target of Elf5 in mouse mammary gland”
Where a chain is given by its changes, count along the chain named.

T1: GST-Elf5 MT2 (R219A) (mouse, UniProt Q8VDK3 1-253, R219A)
T1 sequence: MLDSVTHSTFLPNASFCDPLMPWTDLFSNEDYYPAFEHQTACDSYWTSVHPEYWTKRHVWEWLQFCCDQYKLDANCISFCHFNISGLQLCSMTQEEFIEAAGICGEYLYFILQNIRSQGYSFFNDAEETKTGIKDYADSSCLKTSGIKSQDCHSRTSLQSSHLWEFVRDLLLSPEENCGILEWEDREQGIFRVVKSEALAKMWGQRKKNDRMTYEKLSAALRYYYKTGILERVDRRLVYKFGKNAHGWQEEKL

T2: GST-Elf5 MT1 (K216A) (mouse, UniProt Q8VDK3 1-253, K216A)
T2 sequence: T1 sequence with K216A, A219R

B1: Cyclin D2 upstream region 2 oligo (dsDNA)
DNA 1: GAGCCAGCAGGATGCTTGACATTCCAGCTGCTGG
DNA 2: AGGCCAGCAGCTGGAATGTCAAGCATCCTGCTGG
B2: Cyclin D2 upstream region 1 oligo (dsDNA)
DNA 1: CAGATTAGAAAGGAAAAGGATTACAGTAGT
DNA 2: GTGACTACTGTAATCCTTTTCCTTTCTAAT

Legend:
[1] = biological target: T1, GST-Elf5 MT2 (R219A); assay: EMSA; 20 mM HEPES pH 7.9, 75 mM KCl, 2.5 mM MgCl2, 1 mM EDTA, 0.5 mM DTT, 10% glycerol, 1 ug poly(dA-dT), room temperature; 5% nondenaturing PAGE; settings: protein: recombinant; label: 32P (Klenow fill-in with dCTP); 5' overhangs 3 nt each end as annealed, filled in by Klenow
[2] = biological target: T2, GST-Elf5 MT1 (K216A); assay: as above; settings: protein: recombinant; label: 32P (Klenow fill-in with dCTP); 5' overhangs 3 nt each end as annealed, filled in by Klenow

Binder | binding result [1] | binding result [2]
B1 | no binding | no binding
B2 | no binding | no binding
